This is an account of results in paper PMC9976904, “eIF4A1-dependent mRNAs employ purine-rich 5’UTR sequences to activate localised eIF4A1-unwinding through eIF4A1-multimerisation to facilitate translation”.

Data set [1] concerns the target T1, eIF4A1 (human, UniProt P60842 1-406). The data set is described as follows: EMSA; silvestrol; multimerisation observed; 20 mM HEPES/KOH pH 7.5, 100 mM KCl, 1 mM TCEP, 1% DMSO, 2 mM AMPPNP/MgCl2, 25 C, 60 min; EMSA gels 6-7% acrylamide-TB, 0.5x TB. To be noted: protein: recombinant; tags: N-terminal 6xHis-SUMO, cleaved; label: FAM. For orientation: In EMSA bound probe runs differently from free probe, usually more slowly.

In data set [2] the target is T1, eIF4A1. Description: fluorescence anisotropy; 2 mM AMPPNP/MgCl2; affinity comparable to AG-RNA, Kd in figure only; 20 mM HEPES/KOH pH 7.5, 100 mM KCl, 1 mM TCEP, 1% DMSO, 2 mM AMPPNP/MgCl2, 25 C, 60 min; EMSA gels 6-7% acrylamide-TB, 0.5x TB. To be noted: protein: recombinant; tags: N-terminal 6xHis-SUMO, cleaved; label: FAM or 5' Dy780. (In general: Polarisation of emitted light reports the rotation of a fluorescent probe.)

The target of data set [3] is T1, eIF4A1. Description: EMSA; silvestrol, MgCl2, no ATP; fully bound with and without scavenger AG-RNA; 20 mM HEPES/KOH pH 7.5, 100 mM KCl, 1 mM TCEP, 1% DMSO, 2 mM AMPPNP/MgCl2, 25 C, 60 min; EMSA gels 6-7% acrylamide-TB, 0.5x TB. To be noted: protein: recombinant; tags: N-terminal 6xHis-SUMO, cleaved; label: EMSA: 5' Dy780 / 5' Dy680; FRET: 5' Cy3 / 5' Cy5; 5' overhang 20 nt.

T1 sequence (P60842 whole entry): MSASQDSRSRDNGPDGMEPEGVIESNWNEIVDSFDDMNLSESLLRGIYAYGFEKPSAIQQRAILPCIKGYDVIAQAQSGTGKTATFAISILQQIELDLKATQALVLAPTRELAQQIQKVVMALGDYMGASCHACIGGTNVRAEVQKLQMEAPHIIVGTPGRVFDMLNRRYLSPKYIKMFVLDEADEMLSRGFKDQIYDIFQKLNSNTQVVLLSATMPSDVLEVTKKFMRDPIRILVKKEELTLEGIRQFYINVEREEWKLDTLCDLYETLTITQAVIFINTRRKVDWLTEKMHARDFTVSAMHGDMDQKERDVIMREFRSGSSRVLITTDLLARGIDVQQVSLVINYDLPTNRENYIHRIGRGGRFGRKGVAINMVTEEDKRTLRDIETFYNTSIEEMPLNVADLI

B1: 10 nt AG-RNA (ssRNA)
RNA: AGAGAGAGAG
As for B1, the binding result with eIF4A1 [1] is given as “binds”.

B2: CAA-RNA (20 nt) (ssRNA)
RNA: CAACAACAACAACAACAACA
As for B2, in the data set with eIF4A1 [2], the binding result was “binds”.

B3: AG-overhang 24 bp substrate (EMSA/FRET loading + reporter) (dsRNA)
RNA 1: AGAGAGAGAGAGAGAGAGAGGAAAAAAUUAAAAAAUUAAAAAAC
RNA 2: GUUUUUUAAUUUUUUAAUUUUUUC
Take B3: the binding result with eIF4A1 [3] is given as “binds”.
